Reference: patent US20200046811

Molecular target: T1, Recombinant Human FGF23 (Fibroblast Growth Factor 23) (UniProt Q9GZV9)
T1 sequence: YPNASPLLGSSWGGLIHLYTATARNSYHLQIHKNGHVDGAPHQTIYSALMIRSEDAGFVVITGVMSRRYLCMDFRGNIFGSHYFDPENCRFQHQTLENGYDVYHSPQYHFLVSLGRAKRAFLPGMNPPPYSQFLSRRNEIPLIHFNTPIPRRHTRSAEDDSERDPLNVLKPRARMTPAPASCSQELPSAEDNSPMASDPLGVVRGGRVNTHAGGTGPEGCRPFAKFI

Recombinant human uPA (urokinase plasminogen activator)
in vitro proteolysis of FGF23, silver stained SDS-PAGE gel: smaller fragments are generated on a silver stained SDS-PAGE gel indicating proteolytic cleavage
